In the RNAGym collection of RNA variant scans (doi:10.1073/pnas.2313332121):

B1: TPR t1 (parent)
chain: GACCAAUCUGCCCUCAGAGCUCGAGAACAUCUUCGGAUGCAGAGGAGGCAGGCUUCGGUGGCGCGAUAGCGCCAACGUCCUCAACCUCCAAUGCAUCCCACCACAUGAUGAUGCCUGAAGAGCCUUGGUUUUUUG

Variants of: B1
Test: polymerase ribozyme fitness, log enrichment relative to wild type (log ratio); higher = more active; in vitro selection for triplet polymerase activity
Procedure, shortened: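 Each subunit of a heterodimeric triplet polymerase ribozyme was mutagenized into a library by PCR, transcribed, and subjected to one round of in vitro selection, run in triplicate. Libraries were annealed with a biotinylated primer, the partner subunit and triplets, incubated frozen at −7 °C, and extended constructs were gel-excised, captured on streptavidin beads and recovered by RT-PCR. Input and output libraries were sequenced on Illumina, keeping genotypes with ≥10 input reads and ≥1 read per output. Fitness is log base 2 of genotype enrichment divided by wild-type enrichment, from inverse-variance-weighted replicate averages.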
For GACCAAGCUGCCCUCAGAGCUCGAGAACAUCUUCGGAUGCAGAGGAGGCAGGCUUCGGUGGCGCUAUAGCGCCAACGUCCUCAACCUCCAAUGCAUCCCACCACAUGAUGAUGCCUGAAAAGCCUUGGUUUUUUG [U7G G65U G120A], the “polymerase ribozyme fitness (log ratio)” value was -4.13. For GACCAAGCUACCCUCAGAGCUCGAGAACAUCUUCGGAUGCAGAGGAGGUAGGCUUCGGUGGCGCGAUAGCGCCAACGUCCUCAACCUCCAAUGCAUCCCACCACAUGAUGAGGCCUGAAGAGCCUUGGUUUUUUG [U7G G10A C49U U112G], the “polymerase ribozyme fitness (log ratio)” value was -2.64. With GACCAAGCUGCCCUCAGAGCCCGAGAACAUCUUCGGAUGCAGAGGAUGCAGGCUUUGGUGGCGCGAUAGCGCCAACGUCCUCAACCUCCAAUGCAUCCCACCACAUGAUGAUGCCUGAAGAGCCUUGGUUUUUUG [U7G U21C G47U C56U] the “polymerase ribozyme fitness (log ratio)” value was -1.15. In the case of GACCAAGCUGCCCGCAGAGCUCGAGAACAUCUUGGGAUGCAGAGGAGGCAGGCUUCGGUGGCGCGAUAGCGCCAACGUCCUCAACCUCCAAUGCAUCCCACCACAUGAUGAUGCCUGAAGAGCCUUGGUUUUUUG [U7G U14G C34G], the “polymerase ribozyme fitness (log ratio)” value is reported as -5.56. With GACCAAGCUGCCCUCAGAGCACGAGAACAUCUUCGGAUGCAGAGGAGGCAGGCUGCGGUGGCGCGAUAGCGCCAACGUCCUCAACCUCCAAUGCAUCCCACCACAUGAUGAUGCCUGAAGCGCCUUGGUUUUUUG [U7G U21A U55G A121C] the “polymerase ribozyme fitness (log ratio)” value was 1.32. For GACCAAGCUGCCCUCAGAGCUCGAGAACAUCUUCGGAUGCAGAUGAGGCAGCCUUCGGUGGCGCGAUAGCGCCAACGUCCUGAACCUCCAAUGCAUCCCACCACAUGAUGAUACCUGAAGAGCUUUGGUUUUUUG [U7G G44U G52C C82G G113A C124U], the “polymerase ribozyme fitness (log ratio)” value was -3. With GACCAAUAUGCCCUCGGAGCUCGAGAACAUCUUCGGAUGCAGCGGAGGCAGGCUUCGGUGGCGCGAUAGCGCCAACGUCCUCAACCUCCAAUGCAUCCCACCACAUGAUGAUGCCUGAAGAGCCUUGGUUUUUUG [C8A A16G A43C] the “polymerase ribozyme fitness (log ratio)” value was -1.35. With GACCAAGCUGCCCUCAGAACUCGAGAACAUCUUCGGAUGCAGACGAGGCAGGCUUCGGUGGCGCGAUAGCGCCAACGUCCUCAACCUCCAAUGCAUCCCACCACAUGAUGAUGGCUGAAUAGCCUUGGUUUUUUG [U7G G19A G44C C114G G120U] the “polymerase ribozyme fitness (log ratio)” value was -3.21. In the case of GACCAAGCUGCCCUCAGAGCUCGAGAACAUCUUCGGAUGCAGAGGAGGCAGGCUUCGGUGGCGCGAUAGCGCCAACGUCCUCAACCUCCAAUGCAUGCCACCACAUGAUGAUGCCUGAAGAGCCUUGGUUUUUUG [U7G C97G], the “polymerase ribozyme fitness (log ratio)” value is reported as -3.9. With GACCAAUAUGCCCUCAGAGCUCGAGAACAUCUUCGGAUGCAGAGGAGGCAGGCUUCGGUGGCGCGAUAGCGCCAACGUCCUCAACCUCCAAUGCAUCCCACCACAUGAUGAUGCCUGAAGAGCCUUGGUUUUUUG [C8A] the “polymerase ribozyme fitness (log ratio)” value was 0.459. With GACCAAGCUGCCCUCAGAGCUCGAGAACAUCUUCGGAUGCAGAAGAGGCAGGCUUCGGUGGGGCGAUAGCGCCUACGUCGUCAACCUCCAAUGCAUCCCACCACAUGAUGAUGCCUCAAGAGCCUUGGUUUUUUG [U7G G44A C62G A74U C80G G117C] the “polymerase ribozyme fitness (log ratio)” value was -7. In the case of GACCAAGCUGCCCUCAUAGCUCGAGAACAUCUUCGGAUGCAGAGGAGGCAGGCUUCGGUGUCGCGAUAGCGCCAACGUCCUCAACCUCCAAUGCAUCCCACCACAUGAUGAUGCCUGAAGAGCCUUGGUUUUUUG [U7G G17U G61U], the “polymerase ribozyme fitness (log ratio)” value is reported as -0.326. For GACCAAGCUGCCCUCAGAGCUCGAGAACAUCUUCGGAUGCAGAGGAGGCAGGCUUCGGUGGCGCGAUAGCCCCAACGUCCUCAACCUCCAAUGCAUCCCACCACAUGAUGGUGCUUGAAUAGCCUUGGUUUUUUG [U7G G71C A111G C115U G120U], the “polymerase ribozyme fitness (log ratio)” value was -4.01. In the case of GACCAAGCUGCCCUCAGAGCUCGAGAACAUCUUCGGAUGCAGAGGAGGCAGGCUUCGGUGGCGCGAUACCGCCAACGUCCUCAACUUCCAAUGCAUCCCACCACAUGAUGAUGCCUGAAGAGCCUUGGUUUUUUG [U7G G69C C86U], the “polymerase ribozyme fitness (log ratio)” value is reported as -1.06. In the case of GACCAAGCUGCCCUCAGAGCUCGAGAACAUCUUCGGAUGCAGAGAAGGCAGGCUUCGGGGGCGCGAUAGCGCCAACGUCCUCAACCUCCAAUGCAUCCCACCACAUGAUGAUGCCUGAAGAGCCUUGGAUUUUUG [U7G G45A U59G U129A], the “polymerase ribozyme fitness (log ratio)” value is reported as -1.45. With GACCAAGCUGCCCUCAGAGCUCGAGAACAUCUUCUGAUGCAGAGGAGGCAGGCUUCUGUGGCGCGAUAGCGCCAACGUCCUCAACCACCAAUGCAUCCCACCACAUGAUGAUGCCUGAAGGGCCUUGGUUUUUUG [U7G G35U G57U U87A A121G] the “polymerase ribozyme fitness (log ratio)” value was -3.9. In the case of GACCAAGCUGCCCUCAUAGCUCGAGAAUAUCUUCGGAUGCAGAGGAGGCAGGCUUCGGUGGCGCGAUAGCGCCAACGUCCUCAACCUCCCAUGCAUCCCACCACAAGAUGAUGCCUGAAGAGCCUUGGUUUUUUG [U7G G17U C28U A90C U106A], the “polymerase ribozyme fitness (log ratio)” value is reported as -2.82. In the case of GACCAAGCUGCCCUCAGAGCUCGAGAACAUCUUCGGAUGCAGAGGAGGCAGGCUUCGGUGGCGCGAUAGCGCCAACGUCCUCAACCUCCAAUGCAUCCCACCACAUAAUGAUGCCUGAAGAGCCUUGGUUUUUUG [U7G G107A], the “polymerase ribozyme fitness (log ratio)” value is reported as -4.15. With GACCAAGCUGCCCUCAGAGCUCGAGAACAUCUUCGGAUGCAGAGGAGGCAGGCUUCGGUGGCGCGAUAGCGCCAACGUCCUCAACCUCCAAUGCAUCCCACAACAUGAUGAUGCCUGAAGAGCCUUGGUUUUUUG [U7G C102A] the “polymerase ribozyme fitness (log ratio)” value was -0.8. For GACCAAGCUGCCCUCAGAGCUCGAGAACAUCUUCGCAUGCAGAGGAGGCAGGCUUCGGUGGCGCGAUAGCGCCAACGUCCUCAACCUCCAAUGCAUCCCACCACAUGAUGAUGCCUGAAGAGCCUUGGUUUUUUG [U7G G36C], the “polymerase ribozyme fitness (log ratio)” value was 0.162. For GACCAAGCUGCCCUCAGAGCUCGAGAACAUCUUCGGAUGCAGAGGAGGCAGGCUUCGGUGACGCGAUAGCGCCAAAGUCCUCAACCUCCAAUGAAUCCCACCACAUGAUCAUGCCUCAAGAGCCUUGGUUUUUUG [U7G G61A C76A C94A G110C G117C], the “polymerase ribozyme fitness (log ratio)” value was -7.29.
